Patent publication US20240158512A1 (TRUEBINDING, published 2024)
Blank lines part the entries; values can stand above or below the binder they belong to.

Key:
[1] = biological target: T1, Galectin-3 (UniProt P17931 1-250, limits assumed); experiment: ELISA (Biological Activity); long-term stability 5 C, 1 month
T1 construct: Target of the anti-Gal3 antibody TB006; also called Gal3; GAL3

[2] = biological target: T2, Galectin-3 (Gal3) (UniProt P17931 1-250, limits assumed); experiment: BLI; 50 mg/mL DS after 25 C for 6 months
T2 construct: Target of TB006
T2 sequence (P17931 whole entry): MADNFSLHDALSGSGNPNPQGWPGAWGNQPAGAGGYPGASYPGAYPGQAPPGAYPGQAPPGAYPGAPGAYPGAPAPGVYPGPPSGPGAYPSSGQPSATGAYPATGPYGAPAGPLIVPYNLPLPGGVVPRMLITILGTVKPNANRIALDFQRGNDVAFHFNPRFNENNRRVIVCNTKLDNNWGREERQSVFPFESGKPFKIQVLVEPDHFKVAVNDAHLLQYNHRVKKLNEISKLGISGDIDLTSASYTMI

T1 sequence (P17931 whole entry): as above

IC50 [1]: 1.8 µg/mL
B1: TB006 (antibody, human IgG4 S228P, kappa, V domains shown)
VH: QVQLVQSGAEVKKPGASVKVSCKASGYSFTNYYMHWVRQAPGQRLEWMGWIYPGSGNTNYNEKFQGRVTITADTSASTAYMELSSLRSEDTAVYYCSTAPGGFDVWGQGTTVTVSS
VL: DIVMTQTPLSLSVTPGQPASISCKSSKSLLHSDGITYLYWYLQKPGQSPQLLIYRMSNLASGVPDRFSGSGSGTDFTLKISRVEAEDVGVYYCAQMLEFPLTFGQGTKLEIKR
notes: Tested as formulated drug substance or drug product in 20 mM L-histidine, 5 mM methionine, 100 mM NaCl, 0.02% polysorbate 80, pH 5.8, or diluted in 0.9% saline; also called 4A11.H3L1; IMT006a

Kd [2]: 2.4 nM
B2: TB006 (antibody, human IgG4 S228P, kappa, V domains shown)
VH: B1 VH
VL: B1 VL
notes: Full antibody tested as drug substance (DS) in 20 mM L-histidine, 5 mM methionine, 100 mM NaCl, 0.02% polysorbate-80, pH 5.8; also called 4A11.H3L1; IMT006a
